According to the RNAGym collection of RNA variant scans (doi:10.1101/gr.219683.116):

B1: mRNA-splicing (parent)
chain: AGUUGCUGCUGGGAGCUCCAGCACAGUGAAAUGGACAGAAGGGCAGAGCAA

Variants of: B1
Test: exon inclusion enrichment index; higher = more inclusion; WT1 exon 5 minigene, HEK293

Point of comparison: G5A U7C G8A U10C G21A C22G, “exon inclusion enrichment index” value 2.31. Against it:
- G5A U7C G8A U10C C18U — lower, 1.67
- G5A C6U U7A G8U C9A G43C C44U — lower, 0.033
- G5A C6U U7A G8U C9A C22G A23G — lower, 0.0166
- G5A C6U U7A G8U C9A A40G — lower, 0.0627
- G5A U7A G8A U10C — lower, 1.72
- G5C C6G U7C U10C A37U G38A — lower, 1.78
- G5C C6U G8C C9U U10C A31C — lower, 2.29
- G5A C6U U7A G8U C9A G12C G13C — lower, 0.0141
- G5A C6U U7A G8U C9A G12C G13U — lower, 0.000527
- G5C C6G U7C U10C A37C G38A — higher, 2.71
- G12A G13A — lower, 1.29
- G5C C6A U7C G8A U10A G13A A14U — lower, 0.645
- C6A U7C C9A U10C A47G G48A — higher, 2.43
- G5C U7A G8A U10A — lower, 0.0423
- G5A C6U U7A G8U C9A A20C G21U — lower, 0.0238
- G5A C6U U7A G8U C9A G11A G12U — lower, 0.01
- C6A U7A C9A U10A A25U G26A — lower, 0.899
- G5C C6U G8C C9U U10C G46U A47C — higher, 2.75
- G5C C6U G8C C9U U10C G46U A47G — lower, 1.76
- G5C C6A U7C G8A U10A G46C A47U — lower, 0.141
- C6A U7A C9A U10A G15U — lower, 0.786
- G5A C6G U7G C9A C18A C19A — lower, 0.0013
- G5A C6U U7A G8A C9G — lower, 0.0475
- G5C C6U G8C C9U U10C C19G A20C — lower, 1.8
- G13A A14G — lower, 0.249
- G5A U7C G8A U10C U27A G28A — lower, 2.27
- G8U C9A — lower, 0.386
- G5U U7C G8C C9U — lower, 0.364
- C6A U7A C9A U10A G42C G43C — lower, 1.88
- C6A U7A C9A U10A G28U A29G — lower, 0.627
- G5C C6G U7C U10C G12A G13U — lower, 0.589
- G5C C6A U7C G8A U10A A23C C24A — lower, 0.209
- G15C — lower, 0.187
- G5C C6U G8C C9U U10C A40U G41C — higher, 2.71
- U3C G5C C6G U7C U10C — lower, 1.22
- G5A U7C G8A U10C G46U A47U — higher, 2.48
- C9G U10G — lower, 0.0139
- G5A U7C G8A U10C C19U — lower, 0.131
- G5U G8U C9U C24A A25G — lower, 0.175
- C6A U7A C9A G11A — lower, 0.721
- G5C C6A U7C G8A U10A C19A A20U — lower, 0.00249
- U4G G5C C6U U7A G8U C9A — lower, 0.157
- G5A C6G U7G C9A G34A A35G — lower, 0.00114
- G5C C6A U7C G8A U10A U17C C18U — lower, 0.0619
- C6U U7A G8U C9A — lower, 0.17
- G11U G12C — lower, 1.86
- C6A U7A C9A U10A C18U C19G — lower, 0.119
- G5C C6U G8C C9U U10C A35C C36G — lower, 1.57
- A23G C24A — lower, 1.56
- C6A U7C C9A U10C — higher, 3.63
- G5A C6G G8U C9A — lower, 0.00122
- G5C C6A U7A U10C — higher, 3.35
- G5A C6G U7G C9A G26C U27G — lower, 0.0205
- G5U G8U U10A — lower, 0.444
- G5A U7C G8A U10C A40C — higher, 2.82
- G5C C6G U7C U10C C36U A37U — lower, 2.2
- C9A U10G — lower, 0.829
- G5A C6U U7A G8U C9A C19U — lower, 0.00395
- A31G U32A — lower, 1.08
- G5C C6A U7C G8A U10A U32C G33A — lower, 0.033
- G42C — lower, 0.853
- G5A U7C G8A U10C A30C A31U — lower, 2.21
- G5U U7A C9U — lower, 0.173
- C6A U7A C9A U10A U27C — lower, 1.97
- G5C C6U G8C C9U U10C A39G A40U — lower, 0.232
- G5A C6G U7G C9A G43C C44A — lower, 0.0166
- C6A U7A C9U — lower, 0.615
- G5A U7C G8A U10A — lower, 0.253
- G5A U7C G8A U10C — higher, 2.53
- G5A U7C G8A U10C G38A A39C — lower, 1.95
- C6A U7C C9A U10C G15A C16U — higher, 2.88
- G5A C6G U7G C9A G21U — lower, 0.00149
- G5U G8U C9U A30G A31U — lower, 0.0253
- G5A C6G U7G C9U U10G — lower, 0.493
- G5C C6A U7C G8A U10A G13U A14C — lower, 0.0603
- G5A C6U U7A G8U C9A A47C G48U — lower, 0.0767
- G2C U3C C6A U7C C9A U10C — higher, 2.79
- A30C A31U — lower, 0.103
- G5A U7C G8A U10C A45G G46A — higher, 4.51
- G5C C6G U7C U10C G41C G42C — higher, 4.35
- C6A U7A G8A U10A — lower, 0.0891
- C6A U7C C9A U10C A35U C36G — lower, 0.375
- C6A U7C C9A U10C A25G G26A — higher, 5.01
- G5C C6G U7C U10C G11C G12A — lower, 1.1
- G5U U7A C9A U10A — lower, 0.286
- G5A C6U U7A G8U C9A G46A A47C — lower, 0.232
- C6A U7C C9A U10C U27C — higher, 5.2
- C6A U7C C9A U10C U27A — higher, 3.6
- U4C C6U U7A G8U C9A — lower, 1.12
- C6A U7C G8U C9U U10C — higher, 2.41
- G5C C6A U7C G8A U10A G43A C44G — lower, 0.71
- C6A U7C C9A U10C A31C U32A — higher, 2.78
- C6A U7C C9A U10C A31C U32G — higher, 3.9
- G5C C6U G8C C9U U10C G42A G43C — higher, 4.2
- G5A C6U U7A G8U C9A G12A G13C — lower, 0.0112
- G5C C6U G8C C9U U10C G12C — lower, 1.51
- G5A U7C G8A U10C A29G — higher, 3.4
- C6A U7C C9A U10C G33C G34C — lower, 2.01
- C6A U7C G8C U10C — lower, 2.08
- U4C G5A G8U C9U — lower, 0.77
- C6A U7A C9A U10A G33A G34A — lower, 0.0545
- G5A C6G U7G C9A G28A A29C — lower, 0.00171
- G5C C6U U7A G8A C9U U10C — lower, 0.757
- G5U G8U C9U C16A U17A — lower, 0.0994
- G5U G8U C9U G42U — lower, 0.227
- G5C C6A U7C G8A U10A G28U A29C — lower, 0.0517
- G5A C6U U7A G8U C9A A29C — lower, 0.0477
- C6A U7C C9A U10C G15U C16G — higher, 3.06
- C6A U7C C9A U10C G15U C16A — higher, 2.78
- G5C C6G U7C U10C C44U A45C — higher, 4.13
- G5A U7C G8A U10C U27C G28C — higher, 2.7
- G5U G8U C9U C16G U17G — lower, 0.00571
- G5C C6G U7C U10A G11U — higher, 3.26
- G5C C6U U7C G8U C9U U10C — lower, 1.35
- G5A C6G U7G C9A A45C G46A — lower, 0.000901
- G5U G8U C9U G42A G43A — lower, 1.46
- C6A U7A C9A U10A G11C G12C — higher, 2.68
- C6A U7C C9A U10C G41C G42A — higher, 2.74
- C6A U7C C9A U10C A40C G41C — higher, 3.56
- G5A C6G U7G C9A G43U C44G — lower, 0.000892
- G5U G8U — lower, 1.33
- U4C G5A — lower, 0.0447
- G5C C6G U7C U10C G13A A14C — higher, 3.48
- G5A U7C G8A U10G G11C — higher, 2.55
- U3C U4C G5A U7C G8A U10C — higher, 2.69
- G5C C6G U7C U10C A40C G41U — lower, 1.83
- G5C C6A U7C G8A U10A A35G C36U — lower, 0.00147
- C6A U7A C9A U10A G41U — lower, 0.866
- G5A U7C G8A U10C A25U G26C — lower, 2.25
- G5A U7C G8A U10C G38C — lower, 1.83
- G5A U7C G8A G11A — lower, 0.186
- G5A U7C G8A U10C G33A — lower, 0.235
- G5C C6A U7C G8A U10A G38U A39U — lower, 0.00131
- U4A — lower, 0.00347
- G5U G8U C9U A30U — lower, 0.0559
- G5C C6G U7C U10C A47C G48C — higher, 2.99
- G5U C6A U7C C9A U10C — higher, 2.8
- G5C C6G G8A U10C — higher, 2.37
- A31C U32A — lower, 0.0661
- G5C C6G U7C G8U C9U U10C — higher, 2.82
- G5A U7C G8A U10C A39C A40U — lower, 1.28
- G5C C6G U7C U10C A47U — higher, 3.3
- G5A C6U U7A G8U C9A C19A A20C — lower, 0.0154
- C16G — lower, 0.103
- G5A C6U U7A G8U C9A G46A — lower, 0.0879
- G5A C6U U7A G8U C9A U17G C18G — lower, 0.0481
- G5C C6A U7C G8A U10A G34U A35U — lower, 0.00489
- A29C A30U — lower, 0.0782
- C6A U7A C9A U10A A40C G41C — lower, 1.98
- G5C C6G U7C G8C C9G U10C — higher, 3.59
- G5U G8U C9U G33C — lower, 0.254
- G5C C6U G8C C9U U10C U32G G33C — lower, 1.97
- G5C C6U G8C C9U U10C G15C C16U — lower, 1.9
- G5C C6A U7C G8A C9A — lower, 0.746
- G5C C6A U7C G8A U10A C19U A20C — lower, 0.0561
- G5C C6A U7C G8A U10A C19U A20U — lower, 0.0111
- G5A C6G U7G C9A C44G — lower, 0.00206
- G5C C6U G8C C9U U10C C22U A23C — lower, 1.22
- G2U U3C — lower, 0.216
- G5C C6G U7C U10C A45G G46C — higher, 3.05
- G5A C6G U7G C9A A40U G41A — lower, 0.000658
- G5C C6A U7C G8A U10A A40C G41C — lower, 0.71
- G5U G8U C9U C18U C19G — lower, 0.0199
- G5U G8U C9U C18U C19U — lower, 0.000815
- C6A U7C C9A U10C C19G A20G — higher, 2.38
- G2C U3C — lower, 0.044
